Test: yeast display, Sf9 membrane polyspecificity reagent, FACS + sequencing; frameworks hold sequencing errors
Outline: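 Genes from sorted yeast were amplified by colony PCR, read by MiSeq 2 × 250 sequencing and filtered on CDR length. These cells carried a synthetic nanobody library in Saccharomyces cerevisiae BJ5465 and were sorted by FACS into low and high (top ~1%) gates on anti-HA and streptavidin fluorescence. Polyreactivity is labelled according to the gate of origin.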

| Sequence | polyreactivity (PSR sort gate) |
| --- | --- |
| QVQLVESGGGLVQAGGSLRLSCAASGRTFLWNAMGWSRPAPGKERELVAAITSGGRTTYADSVKGRFTISRDNAKNTVYLQMNSLKPEDTAVYYCAAVSANQDFDYWGQGTQVTVSS | high polyreactivity |
| QVQLVESGGGLVQAGGSLRLSCAASGRTFLWNAMGWYRQAPGKERELVAAIRGGTITYYADSVKGRFTISRDNAKNTVYLQMNSLKPEDTAVYYCAATSARGQYYWYCFNGYPYSEFGYWGQGTQVTVSS | low polyreactivity |
| QVQLVESGGGLVQAGGSLRLSCAASGRTFLWNAMGWYRQAPGKERELVAAISISGGNTNYADSVKGRFTISRDNAKNTVYLQMNSLKPEDTAVYYCNADPRAEPGDWSYEMDYWGQGTQVTVSS | low polyreactivity |
| QVQLVESGGGLVQAGGSLRLSCAASGRTFLWYAKGWYRQAPGKEMELVATITSGDSTIYADSVKGRFTISRDNEKNTVYLQMNSLKPVDTAVYYCAAGYYYYLRDHDYWGQGTQVTVSS | low polyreactivity |
| QVQLVESGGGLVQAGGSLRLSCAASGRTFLYNAMGWYRQAPGKERELVAAIRWSGGTTYYADSVKGRFTISRDNAKNTVYLQMNSLKPEDTAVYYCAARWGPYYGGVRYGYWGQGTQVTVSS | high polyreactivity |
| QVQLVESGGGLVQAGGSLRLSCAASGRTFLYVMGWYRQAPGKERELVAAISRGGSTSYADSVKGRFTISRDNAKNTVYLQMNSLKPEDTAVYYCAATNYWRDGYWGQGTQVTVSS | high polyreactivity |
| QVQLVESGGGLVQAGGSLRLSCAASGRTFMRYAMGWYRQAPGKERELVAAISRGGGRTYYADSVKGRFTISRDNAKNTVYLQMNSLKPEDTAVYYCAADLSPEYDYWGQGTQVTVSS | high polyreactivity |
| QVQLVESGGGLVQAGGSLRLSCAASGRTFNAYAMGWYRQAPGKERELVAAITWSGGSTYYAHSVKGRFTISRDNAKNTVYLQMNSLKPEDTAVYYCAARSFTNIRSVSSPYRYYYWGQGTQVTVSS | high polyreactivity |
| QVQLVESGGGLVQAGGSLRLSCAASGRTFNCYAMGWYRQAPGKERELVAAISNGGNTNYADSVKGRFTISRDNAKNTVYLQMNSLKPEDTAVYYCAARATPAFSRRGYYWGQGTQVTVSS | high polyreactivity |
| QVQLVESGGGLVQAGGSLRLSCAASGRTFNDYAMGWYRQATGKERELVAGITWRGGSTYYADSVKGRFTISRDNAKNTVYLQMNSLKPEDTAVYYCNAVPRRGYSRRDYWGQGTQVTVSS | high polyreactivity |
| QVQLVESGGGLVQAGGSLRLSCAASGRTFNIYAMGWYRQEPGKERELVAAITNNGGRTYYADSVKGRFTISRDNAKNTVYLQMNSLKPEDTAVYYCAAASPWRYGFEYWGQGTQVTVSS | high polyreactivity |
| QVQLVESGGGLVQAGGSLRLSCAASGRTFNKYAMGWYRQAPGKERELVAAISTRGGSTYYADSVKGRFTISRDNAKNNVYLQMNSLKPEDTAVYYCAARLTTVGQGFDYWGQGTKVTVSS | high polyreactivity |
| QVQLVESGGGLVQAGGSLRLSCAASGRTFNPYVMGWYRQAPGKERELVARIRGSGTSTYYADSVKGRFTISRDNAKNTVYLQMNSLKPEDTAVYYCAAAQSKYSFYWGDYYYWGQGTQVTVSS | high polyreactivity |
| QVQLVESGGGLVQAGGSLRLSCAASGRTFNQYAMGWYRQAPGKVRELVAAISRPTGRTYYADSVKGRFTISRDNAKNTVYLQMNSLKPEDTAVYYCAKADNRSPVDNGFDYWGQVTQVTVSS | high polyreactivity |
| QVQLVESGGGLVQAGGSLRLSCAASGRTFNRYAMGWYRQAPGKERELVAVITSDGRTNYADSVKGRFTISRDNAKNTVYLQMNSLKPEDSAVYYCNKRSALSFVYDFDYWGQGTQVTVSS | low polyreactivity |
| QVQLVESGGGLVQAGGSLRLSCAASGRTFNSYAMGWYRQAPGKERELVAGITGTGGSTYYADSVKGRFTISRDNAKNTVYLQMNSLKPEDTAVYYCNALRRCQRYWDPYGYDYWGQGTQVTVSS | high polyreactivity |
| QVQLVESGGGLVQAGGSLRLSCAASGRTFNTYAMGWYRQAPGKEREFVAAIRYSGDRTNYADSVKGRFTISRDNAKNTVYLQMNSLKPEDTAVYYCAAVNYFPWWSFEYWGQGTQVTVSS | low polyreactivity |
| QVQLVESGGGLVQAGGSLRLSCAASGRTFNTYAMGWYRQAPGKERELVAAISSGRRTYYADSVKGRFTISRDNAKNTVYLQMNSLKPEDTAVYYCAKRGRYSYKYDYWGQGTQVTVSS | high polyreactivity |
| QVQLVESGGGLVQAGGSLRLSCAASGRTFNTYAMGWYRQAPGKERELVADISVSGGRTYYADSVKGRFTISRDNAKNTVYLQMNSLKPEDNAVYYCAKRIRYNWTFDYWGQGTQVTVSS | low polyreactivity |
| QVQLVESGGGLVQAGGSLRLSCAASGRTFNVNAMGWYRQAPGKERELVASITWSDGSTYYADSVKGRFTISRDNAKNTVYLQMNSLKPEDTAVYYCNVTYGLESSYPRDDYWGQGTQVTVSS | low polyreactivity |
| QVQLVESGGGLVQAGGSLRLSCAASGRTFNVNVMGWYRQAPGKERELVAAIRYNGGSTYADSVKGRFTISRDNAKNTVYLQMNSLKPEDTAVYYCNADTFFPFEHGMDYWGQGTQVTVSS | low polyreactivity |
| QVQLVESGGGLVQAGGSLRLSCAASGRTFNVYAMGWYRQAPGKERELVAAISIGGRTNYADSVKGRFTISRDNAKNTVYLQMNSLKPEDTAVYYCAADTRRKYGGMYYWGQGTQVTVSS | high polyreactivity |

| Sequence | polyreactivity (PSR sort gate) |
| --- | --- |
| QVQLVESGGGLVQAGGSLRLSCAASGRTFNWYAMGWYRQAPGKEWELVAAISGGGGSTYYADSVKGRFTISRDNAKNTVYLQMNSLKPEDTAVYYCAADVEGWTVESDVYRVGYDYWGQGTQVTVSS | low polyreactivity |
| QVQLVESGGGLVQAGGSLRLSCAASGRTFNYNSMGWYRQAPGKERELVAAISATGGTTYYADSVKGRFTISRDNAKNTVYLQMNSLKPEDTAVYYCAADTPPYYAYWDVSFEYYYWGQGTQVTVSS | low polyreactivity |
| QVQLVESGGGLVQAGGSLRLSCAASGRTFNYYAMGWYRPAPGKERELVAAISGSGGRTYYADSVKGRFTISRDNAKNNVYLQMNSLKPVDTAVYYCNADVGKYPYAHTYWARRYYYWGQGTQVTVSS | high polyreactivity |
| QVQLVESGGGLVQAGGSLRLSCAASGRTFPAYAMGWYRQAPGKERELVAAISRGGSTYYADSVKGRFTISRDNAKNTVYLQMNSLKPEDTAVYYCAARYSYYRQGDSWYNYNYWGQGTQVTVSS | high polyreactivity |
| QVQLVESGGGLVQAGGSLRLSCAASGRTFPAYAMGWYRQAPGKERELVAAISSGTSTYADSVKGRFTISRDNAKNTVYLQMNSLKPEDTAVYYCAAGYDRVHSVAGYDYWGQGTQVTVSS | low polyreactivity |
| QVQLVESGGGLVQAGGSLRLSCAASGRTFPAYAMGWYRQAPGKERELVAAISYSGGRTRYADSVKGRFTISRDNAKNTVYLQMNSLKPEDTAVYYCNRVIPTQSLRDYYWGQGTQVTVSS | high polyreactivity |
| QVQLVESGGGLVQAGGSLRLSCAASGRTFPAYAMGWYRQAPGKERELVAGISKRGGSTYYADSVKGRFTISRDNAKNTVYFQMNSLKPEDTAVYYCNAEGHLFRYDSWGQGTQVTVSS | high polyreactivity |
| QVQLVESGGGLVQAGGSLRLSCAASGRTFPFNTMGWYRQAPGKERELVARISSGGSTYYADSVKGRFRISRDNAKNTVYLQMNSLKPEDTAVYYCATRYRYYSRLYDYWGQGTQVTVSS | high polyreactivity |
| QVQLVESGGGLVQAGGSLRLSCAASGRTFPGNAMGWYRQAPGKERELVAAIRWRGGSTYYADSVKGRFTISRDNAKNTVYLQMNSLKPEDTAVYYCATRALGHFDWGQGTQVTVSS | low polyreactivity |
| QVQLVESGGGLVQAGGSLRLSCAASGRTFPGYAMGWYRQAPGKERELVAGISYRGGSTYYADSVKGRITISRDIAKNSVYLQMISLKPEDTAVYFCARDYSRHKGDLWGQGTQVTVSS | low polyreactivity |
| QVQLVESGGGLVQAGGSLRLSCAASGRTFPIYAMGWYRQAPGKERELVAAITSYRRGTTYYADSVKGRFTISRDNAKNTVYLQMNSLKPEDTAVYYCTARTLRGGEYKYWGQGTPVTVSS | high polyreactivity |
| QVQLVESGGGLVQAGGSLRLSCAASGRTFPLYAMGWYRQAPGKERELVASITTDSSTYYADSVKGLFTISRDNAKYTVYLQMNSLKPEDTAVYYCAATTIPYPYTEFDYWGQGTQVTVSS | low polyreactivity |
| QVQLVESGGGLVQAGGSLRLSCAASGRTFPPYAMGWYRQAPGKERELVAAISRRAGTTYYADSVKGRFTISRDNAKNTVYLQMNSLKPEDTAVYYCAASDHYRWYVHRWEDPFYYWGQGTQVTVSS | low polyreactivity |
| QVQLVESGGGLVQAGGSLRLSCAASGRTFPRNAMGWYRQAPGKERELVAAITTSGGRTYYADSVKGRFTISRDNAKNTVYLQMNSLKPEDTAVYYCAVRYDTLAWYAFYYWGQGTQVTVSS | low polyreactivity |
| QVQLVESGGGLVQAGGSLRLSCAASGRTFPSYAKGLYRQAPGKERELVASISRGASTNYADSVMGRFTISRDNAKNCVFLQMNSLKPEDTAVYFWAANDSWVYTYYYWGQGTQVTVSS | high polyreactivity |
| QVQLVESGGGLVQAGGSLRLSCAASGRTFPSYAMGWYRQAPGKERELVAAISRSGGSTYYADSVKGRFTISRDNAKNTVYLQMNSLKPEDTAVYYCAAVSRVHFSYIYDYWGQGTQVTVSS | high polyreactivity |
| QVQLVESGGGLVQAGGSLRLSCAASGRTFPTNAMGWYIQAPGKERELVAVISRNSGRTYYADSVKGRFTISRDNAMNTVYFQMNSLKPEDTAVYYCAADKYTRAYYYWGQGTQVTVSS | high polyreactivity |
| QVQLVESGGGLVQAGGSLRLSCAASGRTFPTNAMGWYRQAPGKERELVARISTRGGSTYYADSVKGRFTISRDNAKNTVYLQMNSLKPEDTAVYYCARRYAVSNQASYYWGQGTQVTVSS | high polyreactivity |
| QVQLVESGGGLVQAGGSLRLSCAASGRTFPTYAMGWYRQAPGKERELVARITWNGGSTYYADSVKGRFTISRDNAKNTVYLQMNSLKPEDTAVYYCNAAQRIRYYPRYYYGYDYWGQGTQVTVSS | high polyreactivity |
| QVQLVESGGGLVQAGGSLRLSCAASGRTFPVNAMGWYRQAPGKERELVASITYSGGSTYYADSVKGRFTISRDNAKNTVYLQMNSLKPEDTAVYYCAADWYRSPYDYWGQGTQVTVSS | low polyreactivity |
| QVQLVESGGGLVQAGGSLRLSCAASGRTFPVNVMGWYRQAPGKERELVAAITWSGDSTYYADSVKGRFTISRDNAKNTVYLQMNSVKPEDTAVYYCATDYSGLRYDYWGQGTQVTVSS | low polyreactivity |

Reference: the nanobody polyreactivity screen of Harvey et al. (2022)
